From IntAct's records for PubMed 17875927

B1: CBL-interacting serine/threonine-protein kinase 24 (Arabidopsis thaliana (Mouse-ear cress)), Q9LDI3 (parent)
chain: MTKKMRRVGKYEVGRTIGEGTFAKVKFARNTDTGDNVAIKIMAKSTILKNRMVDQIKREISIMKIVRHPNIVRLYEVLASPSKIYIVLEFVTGGELFDRIVHKGRLEESESRKYFQQLVDAVAHCHCKGVYHRDLKPENLLLDTNGNLKVSDFGLSALPQEGVELLRTTCGTPNYVAPEVLSGQGYDGSAADIWSCGVILFVILAGYLPFSETDLPGLYRKINAAEFSCPPWFSAEVKFLIHRILDPNPKTRIQIQGIKKDPWFRLNYVPIRAREEEEVNLDDIRAVFDGIEGSYVAENVERNDEGPLMMNAFEMITLSQGLNLSALFDRRQDFVKRQTRFVSRREPSEIIANIEAVANSMGFKSHTRNFKTRLEGLSSIKAGQLAVVIEIYEVAPSLFMVDVRKAAGETLEYHKFYKKLCSKLENIIWRATEGIPKSEILRTITF

Variants of: B1
Settings: with vatb1_arath VHA-B1, P11574
vatb1_arath VHA-B1, P11574, sequence (P11574 whole entry): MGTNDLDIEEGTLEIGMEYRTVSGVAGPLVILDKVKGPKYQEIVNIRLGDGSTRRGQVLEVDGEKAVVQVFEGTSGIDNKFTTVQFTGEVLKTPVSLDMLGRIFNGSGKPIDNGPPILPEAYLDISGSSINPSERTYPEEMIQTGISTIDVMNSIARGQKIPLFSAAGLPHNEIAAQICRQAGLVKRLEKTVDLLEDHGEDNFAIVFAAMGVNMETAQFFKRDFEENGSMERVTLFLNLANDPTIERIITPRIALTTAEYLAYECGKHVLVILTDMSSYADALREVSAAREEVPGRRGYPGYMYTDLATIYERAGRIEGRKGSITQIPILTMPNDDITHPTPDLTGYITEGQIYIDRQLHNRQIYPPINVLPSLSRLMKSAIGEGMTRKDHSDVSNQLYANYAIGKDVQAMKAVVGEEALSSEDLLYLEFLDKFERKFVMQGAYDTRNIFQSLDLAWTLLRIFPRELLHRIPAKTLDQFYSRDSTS

Variant	effect of a mutation on the interaction
K40N	decreasing interaction

Variants of: B1
Settings: with vatb2_arath VHA-B2, Q9SZN1
vatb2_arath VHA-B2, Q9SZN1, sequence (Q9SZN1 whole entry): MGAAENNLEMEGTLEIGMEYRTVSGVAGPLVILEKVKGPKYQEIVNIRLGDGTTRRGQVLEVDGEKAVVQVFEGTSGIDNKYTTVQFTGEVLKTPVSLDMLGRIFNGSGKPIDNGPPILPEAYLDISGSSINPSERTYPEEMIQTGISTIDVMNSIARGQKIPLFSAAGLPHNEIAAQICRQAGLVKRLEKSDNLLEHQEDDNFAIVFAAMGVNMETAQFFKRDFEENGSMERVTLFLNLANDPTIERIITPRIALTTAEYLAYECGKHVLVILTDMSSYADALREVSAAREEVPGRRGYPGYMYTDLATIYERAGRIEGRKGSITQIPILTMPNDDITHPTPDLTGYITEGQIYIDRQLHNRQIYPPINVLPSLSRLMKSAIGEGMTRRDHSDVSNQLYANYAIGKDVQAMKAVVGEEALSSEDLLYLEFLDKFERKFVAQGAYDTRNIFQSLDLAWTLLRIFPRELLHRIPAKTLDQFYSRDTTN

Variant	effect of a mutation on the interaction
K40N	decreasing interaction
